Each substance was assayed against recombinant PD-L1 extracellur domain protein (UniProt Q9NZQ7) (assay: ELISA on recombinant PD-L1 extracellular domain protein).
Sequence of recombinant PD-L1 extracellur domain protein (Q9NZQ7 19-238 limits assumed): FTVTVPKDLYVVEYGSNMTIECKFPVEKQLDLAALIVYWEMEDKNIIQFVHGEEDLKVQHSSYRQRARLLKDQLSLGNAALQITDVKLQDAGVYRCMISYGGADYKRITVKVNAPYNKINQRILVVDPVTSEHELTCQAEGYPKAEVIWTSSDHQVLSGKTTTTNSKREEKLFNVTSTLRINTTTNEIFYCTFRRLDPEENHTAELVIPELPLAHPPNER

Row | EC50 | Substance
1 | < 0.1 nM | HAC, high affinity PD-1 mutant (positive control)
2 | > 100 nM | P048 (IgV domain of PD-1, Gene 048, on kappa chain, co-expressed with an empty IgG1 heavy chain) (from UniProt P01857 1-330)
3 | > 100 nM | P050 (IgV domain of PD-1, lower affinity L128R mutant, Gene 050, on kappa chain, co-expressed with an empty IgG1 heavy chain) (from UniProt P01857 1-330)

The substances below were run against recombinant CD47 extracellur domain protein (UniProt Q08722) (assay: ELISA on recombinant CD47 extracellular domain protein).
Sequence of recombinant CD47 extracellur domain protein (Q08722 19-139 limits assumed): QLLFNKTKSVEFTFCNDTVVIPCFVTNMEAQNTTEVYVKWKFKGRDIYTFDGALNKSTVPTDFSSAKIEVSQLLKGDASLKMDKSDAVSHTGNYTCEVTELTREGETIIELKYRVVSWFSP

Row | EC50 | Substance
4 | < 0.1 nM | CV1, high affinity SIRPa mutant (positive control)
5 | > 100 nM | S007 (binding domain of human SIRPa, Gene 007, on human kappa light chain, co-expressed with an empty IgG1 heavy chain) (from UniProt P01834 1-107; P01857 1-330)
6 | > 100 nM | S012 (binding domain of human SIRPa, Gene 012, on human kappa light chain, co-expressed with an empty IgG1 heavy chain) (from UniProt P01834 1-107; P01857 1-330)

From patent publication US20210332135A1
